Test results: patent publication US20240174744A1 (SCIRHOM, published 2024)

T1: hiR2-FL-L539A-T7 (human iRhom2 full length L539A, 3 x T7 tag) (human, UniProt Q6PJF5 1-856)
T1 sequence: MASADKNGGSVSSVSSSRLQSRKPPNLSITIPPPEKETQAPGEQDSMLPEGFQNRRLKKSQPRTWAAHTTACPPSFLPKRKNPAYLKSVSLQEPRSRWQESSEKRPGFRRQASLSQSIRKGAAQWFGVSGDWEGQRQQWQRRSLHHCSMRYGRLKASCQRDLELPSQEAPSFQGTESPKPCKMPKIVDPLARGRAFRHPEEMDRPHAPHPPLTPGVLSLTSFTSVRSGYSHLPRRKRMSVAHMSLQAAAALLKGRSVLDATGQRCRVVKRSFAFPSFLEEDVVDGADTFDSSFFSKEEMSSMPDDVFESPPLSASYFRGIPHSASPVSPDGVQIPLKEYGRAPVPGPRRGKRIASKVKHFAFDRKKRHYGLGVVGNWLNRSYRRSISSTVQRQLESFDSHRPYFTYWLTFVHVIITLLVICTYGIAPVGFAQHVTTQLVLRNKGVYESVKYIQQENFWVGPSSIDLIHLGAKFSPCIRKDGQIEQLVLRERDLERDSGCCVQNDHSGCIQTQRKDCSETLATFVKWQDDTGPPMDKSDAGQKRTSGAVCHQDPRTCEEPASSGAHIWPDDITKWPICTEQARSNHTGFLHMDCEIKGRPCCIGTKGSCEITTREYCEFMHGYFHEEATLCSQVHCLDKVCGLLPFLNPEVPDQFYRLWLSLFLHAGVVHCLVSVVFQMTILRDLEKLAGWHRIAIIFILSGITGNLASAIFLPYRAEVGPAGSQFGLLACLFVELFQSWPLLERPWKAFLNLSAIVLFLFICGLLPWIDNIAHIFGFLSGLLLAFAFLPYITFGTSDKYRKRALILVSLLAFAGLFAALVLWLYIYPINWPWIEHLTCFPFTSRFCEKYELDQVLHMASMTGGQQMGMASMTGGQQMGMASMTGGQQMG

B1: antibody 34 (antibody, V domains shown)
VH: QVTLKESGPGILQPSQTLSLTCSFSGFSLSTFSLGVGWIRQSSGKGLEWLAHIWWDDEKYYNPALKSRLTISKDTSKNQVFLKIANVDAADTATYYCARAYYSKSYYALDYWGQGTSVTVSS
VL: DIQMTQSPSSLSASLGERVSLTCRASQEISGYLSWLQQKPDGTIKRLIYAASTLDSGVPKRFSGSRSGSDYSLAISSLESEDFADYYCLQYANFPFTFGSGTKLEIK
notes: Mouse IgG, kappa light chain; also called clone #34; m34
B2: antibody 3 (antibody, V domains shown)
VH: QVTLKESGPGILQPSQTLSLTCSFSGFSLTTFAMGIGWVRQPSGKGLEWLAHIWWDGEKYNNPVLKSRLTISKDTSKNQVFLRIANVDTPDTATYYCARISSIYYIIDNWGQGTSVTVSS
VL: DIVLTQSPATLSVTPGHSVSLSCRASQSISNNLHWYQKKSHESPRLLIKYVSQSISGIPSRFSGSGSGTDFTLSINSVETEDFGMYFCQQSYNWPLTFGAGTKLELK
notes: Mouse IgG, kappa light chain; also called clone #3; purified antibody 3
B3: antibody 43 (antibody, V domains shown)
VH: QVALKESGPGILQPSQTLSLTCSFSGFSLSTFGMGVGWIRQSSGKGLEWLANIWWDDDKYYNPALKSRLTISKDASKNQAFLKIANVDTADTATYYCARIGNYGSNYWYFDVWGTGTTVTVSS
VL: QIVLTQSPAIMSASPGERVTMTCSANSRISYMYWYQQKPGSSPRLLIYDTSNLASGVPVRFSGSGSGTSYSLTISRMEAEDAATYNCQQWSSYPLTFGAGTKLELK
notes: Mouse IgG, kappa light chain; also called clone #43
B4: antibody 42 (antibody, V domains shown)
VH: QVTLKESGPGILQPSQTLSLTCSLSGFSLSTFGRGVGWIRQPSGKGLEWLAHIWWDDEKYYNPALKSRLTISKDTSKNQVFLRIANVDTADTATYYCARIQNYGSNYWYFDVWGTGTTVTVSS
VL: LIVLTQSPAIMSASPGEKVTMTCGATSRISYMFWYQQKPGSSPRVLIYDTSNLASGVPVRFSGSGSGTSYSLTISRVEAEDVATYYCQQWNSYPLTFGAGTKLELK
notes: Mouse IgG, kappa light chain; also called clone #42; m42
B5: antibody 5 (antibody, V domains shown)
VH: QVTLKESGPGILQPSQTLSLTCSFSGFSLSTFGMGVGWIRQPSGKGLEWLAHIWWDDEKYYNSALKSRLTISKATSKNQAFLKIANVDTADTATYYCARISNYGSNYWYFNVWGTGTTVTVSS
VL: QVVLTQSPALMSASPGEKVTMTCSAGSSVSCMYWYQQKPGSSPRVLIYDTSNLASGVPARFTGSGSGTSYSLTISRMEAEDAASYYCQQWNSYPLTFGAGTKLELK
notes: Mouse IgG, kappa light chain; also called clone #5; purified antibody 5
B6: antibody 44 (antibody, V domains shown)
VH: QVTLKESGPGILQPSQTLSLTCSFSGFSLSTFGMGVGWIRQPSEKGLEWLAHIWWDDDKYYNPALKSRLTISKDTSKNQIFLKITNVDTAETATYYCSRIGNYGSNYWYFDVWGTGTTVTVSS
VL: QIVLTQSPAVMSASPGEKVTMTCTASSSVYYMYWYQQTPGSSPRLLIYDTSNLASGVPVRFSGSGSGTSYSLTISRMEAEDAATYYCQQWNTYPLTFGAGTKLELK
notes: Mouse IgG, kappa light chain; also called clone #44; m44
B7: antibody 22 (antibody, V domains shown)
VH: QVTLKESGPGILQPSQTLSLTCSFSGFSLSTFGMGVGWIRQPSGKGLEWLAHIWWDDEKYYNSALKSRLTISKATSKNQVFLKIANVDTADTATYYCARISNYGSNYWYFNVWGTGTTVTVSS
VL: QVVLTQSPALMSASPGEKVTMTCSAGSSVSYMYWYQQKPGSSPRVLIYDTSNLASGVPARFTGSGSGTSYSLTISRMEAEDAATYYCQQWNSYPLTFGAGTKLELK
notes: Mouse IgG, kappa light chain; also called clone #22; m22

target: T1, hiR2-FL-L539A-T7 (human iRhom2 full …); assay: FACS on cells of the row L539A, vs human iR2 wild type = 100%
Excerpt: In brief, immortalized MEF-DKO-hiR2-FL-G498A-T7, MEF-DKO-hiR2-FL-Q502R-T7, MEF-DKO-hiR2-FL-I509V-T7, MEF-DKO-hiR2-FL-Q512S-T7, MEF-DKO-hiR2-FL-R513E-T7, MEF-DKO-hiR2-FL-K514E-T7, MEF-DKO-hiR2-FL-D515E-T7, MEF-DKO-hiR2-FL-E518S-T7, MEF-DKO-hiR2-FL-T522V-T7, MEF-DKO-hiR2-FL-F523W-T7, MEF-DKO-hiR2-FL-Q527P-T7, MEF-DKO-hiR2-FL-D528I-T7, MEF-DKO-hiR2-FL-D529H-T7, MEF-DKO-hiR2-FL-T530P-T7, MEF-DKO-hiR2-FL-G531S-T7, MEF-DKO-hiR2-FL-P532A-T7, MEF-DKO-hiR2-FL-M534-T7, MEF-DKO-hiR2-FL-D535-T7, MEF-DKO-hiR2-FL-K536-T7, MEF-DKO-hiR2-FL-S537E-T7, MEF-DKO-hiR2-FL-D538L-T7, MEF-DKO-hiR2-FL-L539A-T7, MEF-DKO-hiR2-FL-Q541H-T7, MEF-DKO-hiR2-FL-T544Q-T7, MEF-DKO-hiR2-FL-S545F-T7, MEF-DKO-hiR2-FL-A547S-T7, MEF-DKO-hiR2-FL-T555V-T7, MEF-DKO-hiR2-FL-E557D-T7, MEF-DKO-hiR2-FL-A560S-T7 and MEF-DKO-hiR2-FL-S562E-T7 cells were harvested with 10 mM EDTA in PBS, washed and resuspended in FACS buffer (PBS, 3% FBS, 0.05% sodium azide), and seeded in Nunc U-bottom 96-well plates (Thermo Fisher Scientific, USA) at approximately 3×10⁵ cells per well. To pellet cells and remove supernatants, the plates were centrifuged at 1,500 rpm and 4° C. for 3 minutes. For primary staining, cells were resuspended in 100 μl per well of either FACS buffer alone (controls) or the purified antibodies 3, 5, 16, 22, 34, 42, 43, 44, 48, and 50 of the present disclosure at 3 μg/ml in FACS buffer and incubated on ice for 1 hour. Afterwards, plates were centrifuged at 1,500 rpm and 4° C. for 3 minutes and washed twice with 200 μl per well of FACS buffer. For secondary staining, cells were spun down and resuspended in 100 μl per well of PE-conjugated goat anti-mouse IgG F(ab′)2 detection fragment (Dianova, Germany) diluted 1:100 in FACS buffer. Protected from light, the cell suspensions were incubated on ice for 1 hour. Plates were then centrifuged at 1,500 rpm and 4° C. for 3 minutes and washed three times with 200 μl per well of FACS buffer. Finally, cells were resuspended in 150 μl per well of FACS buffer and analyzed using a BD Accuri™ C6 Plus flow cytometer (Becton Dickinson, Germany).

**Q.** B1 was tested. Which “grade of loss of binding vs wild type” value did it give?
**A.** The value was 3 grade (3 => 95% loss of binding vs wild type).

**Q.** Which “grade of loss of binding vs wild type” value does the source give for B2 here?
**A.** Its value is 3 grade (3 => 95% loss of binding vs wild type).

**Q.** Which “grade of loss of binding vs wild type” value does the source give for B3 here?
**A.** Its value is 3 grade (3 => 95% loss of binding vs wild type).

**Q.** For B4, which “grade of loss of binding vs wild type” value is on record?
**A.** Its value is 3 grade (3 => 95% loss of binding vs wild type).

**Q.** B5 was tested. Which “grade of loss of binding vs wild type” value did it give?
**A.** The value was 3 grade (3 => 95% loss of binding vs wild type).

**Q.** For B6, which “grade of loss of binding vs wild type” value is on record?
**A.** Its value is 3 grade (3 => 95% loss of binding vs wild type).

**Q.** B7 was tested. Which “grade of loss of binding vs wild type” value did it give?
**A.** Its value is 3 grade (3 => 95% loss of binding vs wild type).
